Reference: the supplement of paper PMC7877785
± gives the uncertainty stated by the source.

Assay: self-splicing fitness, log relative to wild type (ln ratio); higher = more splicing; Tetrahymena group I intron in knt gene, E. coli kanamycin selection, DiMSum; sequences stand for … in CUCUCU…GGAGGGAAAAGUUAUCAGGCAUGCACCUGGUAGCUAGUCUUUAAACCAAUAGAUUGCAUCGGUUUAAAAGGCAAGACCGUCAAAUUGCGGGAAAGGGGUCAACAGCCGUUCAGUACCAAGUCUCAGGGGAAACUUUGAGAUGGCCUUGCAAAGGGUAUGGUAAUAAGCUGACGGACAUGGUCCUAACCACGCAGCCAAGUCCUAAGUCAACAGAUCUUCUGUUGAUAUGGAUGCAGUUCACAGACUAAAUGUCGGUCGGGGAAGAUGUAUUCUUCUCAUAAGAUAUAGUCGGACCUCUCCUUAAUGGGAGCUAGCGGAUGAAGUGAUGCAACACUGGAGCCGCUGGGAACUAAUUUGUAUGCGAAAGUAUAUUGAUUAGUUUUGGAGUACUCGUGGUCG
Outline: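 A randomised library covering all eight P1ex-region intron nucleotides was built with the intron in the knt kanamycin-resistance gene on pET-22b(+) and held in E. coli BL21(DE3). Cells were grown overnight at 37°C or 30°C on LB agar, with or without 25 μg/mL kanamycin, plus 100 μg/mL carbenicillin, 50 μM IPTG and 0.2% rhamnose, and pooled colonies were amplicon-sequenced on an Illumina HiSeq 2500. DiMSum fitness is the error-weighted combination of wild-type-normalised replicate fold changes, kanamycin versus none.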

| Sequence | self-splicing fitness (ln) (30 °C) | self-splicing fitness (ln) (37 °C) |
| --- | --- | --- |
| CUGGAGCAAUAUUACGUGCG | -1.44 ± 0.092 | -1.19 ± 0.12 |
| GCCCAGCAAUAUUACGUCGA | -1.5 ± 0.082 | -1.09 ± 0.086 |
| CACUAGCAAUAUUACGUGCG | -2.13 ± 0.081 | -0.945 ± 0.082 |
| AUUAAGCAAUAUUACGAGAC | -3.39 ± 0.48 | -1.46 ± 0.27 |
| UUCCAGCAAUAUUACGAGGC | -3.72 ± 0.35 | -2.58 ± 0.27 |
| GCGUAGCAAUAUUACGUACA | -1.1 ± 0.16 | -1.23 ± 0.14 |
| CAGGAGCAAUAUUACGUUCG | -0.032 ± 0.12 | 0.338 ± 0.15 |
| CACCAGCAAUAUUACGGUAU | -2.42 ± 0.072 | -1.03 ± 0.067 |
| GACCAGCAAUAUUACGCCAC |  | -2.73 ± 0.46 |
| GGCAAGCAAUAUUACGUUGU | -3.52 ± 0.16 | -2.6 ± 0.21 |
| GUCGAGCAAUAUUACGCUCA | -0.929 ± 0.21 | -0.388 ± 0.22 |
| UCUGAGCAAUAUUACGGCGA | -0.309 ± 0.12 | 0.122 ± 0.18 |
| AACGAGCAAUAUUACGUCAG | -3.08 ± 0.29 | -2.97 ± 0.34 |
| GUAGAGCAAUAUUACGUAGU |  | -0.866 ± 0.15 |
| AGUUAGCAAUAUUACGCAGC | -2.29 ± 0.16 | -1.18 ± 0.16 |
| UUAGAGCAAUAUUACGAUAA | -0.0105 ± 0.13 | 0.418 ± 0.18 |
| CUCCAGCAAUAUUACGAUGG | -4.58 ± 0.32 | -3.19 ± 0.26 |
| AGCGAGCAAUAUUACGACAG |  | -2.08 ± 0.4 |
| CCGCAGCAAUAUUACGAGCG | -2.4 ± 0.12 | -0.494 ± 0.11 |
| GCUUAGCAAUAUUACGCGCG | -0.0422 ± 0.094 | -0.149 ± 0.13 |

| Sequence | self-splicing fitness (ln) (30 °C) | self-splicing fitness (ln) (37 °C) |
| --- | --- | --- |
| UGAAAGCAAUAUUACGAGGA | -3.43 ± 0.24 | -1.81 ± 0.15 |
| AGACAGCAAUAUUACGGGAG | -3.93 ± 0.16 | -2.89 ± 0.17 |
| CGGUAGCAAUAUUACGUGGG | -3.79 ± 0.17 | -3.11 ± 0.14 |
| GGAGAGCAAUAUUACGUAAG | -2.82 ± 0.19 | -0.478 ± 0.21 |
| UUAAAGCAAUAUUACGGAAA | -0.926 ± 0.092 | -1.29 ± 0.12 |
| CUGCAGCAAUAUUACGCCUG | -2.21 ± 0.28 | -1.14 ± 0.28 |
| GAGGAGCAAUAUUACGCAAU | -2.36 ± 0.36 |  |
| UCUGAGCAAUAUUACGGGAG | -4.4 ± 0.36 | -2.65 ± 0.29 |
| AAUAAGCAAUAUUACGCCAG | -1.88 ± 0.18 | -0.98 ± 0.25 |
| CCAGAGCAAUAUUACGACUA | -2.95 ± 0.28 | -2.47 ± 0.38 |
| CGAUAGCAAUAUUACGACCG | -1.44 ± 0.21 | 0.156 ± 0.24 |
| GACCAGCAAUAUUACGCGCA | -0.663 ± 0.065 | 0.131 ± 0.093 |
| ACUCAGCAAUAUUACGGCGC | -0.183 ± 0.068 | 0.000506 ± 0.097 |
| AAACAGCAAUAUUACGAUUG | -3.35 ± 0.12 | -1.76 ± 0.12 |
| GGCAAGCAAUAUUACGAACG | -0.449 ± 0.068 | -0.593 ± 0.061 |
| AGAUAGCAAUAUUACGGAUG | -2.96 ± 0.19 | -2.3 ± 0.28 |
| GAAAAGCAAUAUUACGUAGU | -2.02 ± 0.077 | -1.75 ± 0.13 |
| GUGCAGCAAUAUUACGGGUU | -3.37 ± 0.13 | -0.752 ± 0.095 |
| CAAGAGCAAUAUUACGUCUU | -3.62 ± 0.25 | -1.46 ± 0.11 |
